The source of these data is patent US20180044415A1 (AbbVie / Abbott, published 2018).

Substitutions are numbered along the chain they refer to.

T1: human DLL3 (immobilized human DLL3 or h293-hDLL3 cells) (human, UniProt Q9NYJ7 27-492, limits assumed)
T1 construct: the sentence says 'immobilized human DLL3 or h293-hDLL3 cells'
T1 sequence: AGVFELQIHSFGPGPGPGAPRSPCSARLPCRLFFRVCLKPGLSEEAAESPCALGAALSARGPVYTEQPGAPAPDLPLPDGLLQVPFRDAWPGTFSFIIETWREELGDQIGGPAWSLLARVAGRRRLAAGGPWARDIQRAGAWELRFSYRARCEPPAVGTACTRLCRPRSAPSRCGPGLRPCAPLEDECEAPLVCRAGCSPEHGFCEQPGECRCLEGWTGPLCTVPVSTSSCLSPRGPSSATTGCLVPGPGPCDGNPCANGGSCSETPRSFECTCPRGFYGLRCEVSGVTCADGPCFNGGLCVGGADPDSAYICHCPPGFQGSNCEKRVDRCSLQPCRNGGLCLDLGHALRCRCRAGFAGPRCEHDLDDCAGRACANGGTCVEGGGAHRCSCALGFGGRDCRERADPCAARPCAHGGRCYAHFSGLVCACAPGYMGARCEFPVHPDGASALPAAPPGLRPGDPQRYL

B1: SC16.147 (antibody, V domains shown)
VH: QIQLVQSGPELTKPGETVKISCKASGYTFTDYSLHWVKQALGKGLKWMGWINTETGEPAYADDFKGRFAFSLETSASTAYLQINDLKNEDTTTYFCGIYDGYAMDYWGQGTSVTVSS
VL: DIQMTQTASSLSASLGDRVTISCRASQDINNYLNWYQQKPDGTVKLLIYYTSRLHSGVPSRFSGSGSGTDYSLTISILEQEDIATYFCQQGDTLPWTFGGGTKLEIK
notes: murine mAb; variable regions only
B2: SC16.4 (antibody, V domains shown)
VH: B1 VH with T12K, L34M, L41P, A59G, D85N, T92A, G97A, I98R
VL: B1 VL with A8T, N30S, I77N, Q80L, T93M
notes: as for B1
B3: SC16.22 (antibody, V domains shown)
VH: QVQLQQPGAELVKPGASVKLSCKASGYTFTTYWMHWVKQRPGQGLEWIGEIDPSDSYTYYNQKFKGKATLTVDKSSSTAYMQLSSLTSEDSAVYYCARGDYGNPYAMDYWGQGSSVTVSS
VL: B1 VL with A8T, N30K, L46P, L54V, I77N, D92Y, W96F, G100S
notes: as for B1
B4: SC16.143 (antibody, V domains shown)
VH: QVQLQQSGPELVKPGASVRISCKASGYTFTSYYIHWVKQRPGQGLEWIGWIYPGNGNTKYNEKFKGKATLTADKSSSTAYMQISSLTSEDSAVYFCARERWLLLWFAYWGQGTLVTVSA
VL: DVLMTQTPLSLPVSLGDQASISCRSSQSIVHSNGNTYLEWYLQKPGQSPKLLIYKVSNRFSGVPDRFSGSGSGTDFTLKISRVEAEDLGVYYCFQGSHVPLTFGAGTKLELK
notes: as for B1
B5: SC16.144 (antibody, V domains shown)
VH: QIQLVQSGPELKKPGETVKISCKASGYTFTNYGMNWVKQAPGKGLKWVGWINTYTGEPTYADDFKGRFAFSLETSASTAYLQIDNLKNEDTATYFCARVGDYVGFDYWGQGTTLTVSS
VL: SIVMTQTPKFLLVSAGDRVTITCKASQSVSNDVGWYQQKPGQSPKLLIYYASNRYNGVPDRFTGSGYGTDFTFTISTVQAEDLAVYFCQQDYSSPWTFGGGTKLEIK
notes: as for B1
B6: SC16.5 (antibody, V domains shown)
VH: QVTLKESGPGILQPSQTLSLTCSFSGFSLSTSGMGVGWIRQPSGEGLEWLADIWWDDNKYYNPSLKSRLTISKDTSSNQVFLKITSVDTADTATYYCARRVNYVYDPYYAMDYWGQGTSVTVSS
VL: QIVLTQSPAIMSASPGEKVTMTCSASSSVSYMHWYQQKSGTSPKRWIYDTSKLASGVPARFSGSGSGTSYSLTISSMEAEDAATYYCQQWTRNPLTFGAGTKLELK
notes: as for B1
B7: SC16.25 (antibody, V domains shown)
VH: B6 VH with A51T, K83N, V104Y
VL: B6 VL with T50S, T91S, R92S
notes: as for B1
B8: SC16.8 (antibody, V domains shown)
VH: QAQLQQSGAELVRPGTSVKVSCKASGYAFTNYLIEWVKQRPGQGLEWIGVINPGTGGTNYNENFKGKATLTADKSSSTAYMQLSSLTSDDSAVYFCARSPYDYHEGAMDYWGQGTSVTVSS
VL: EIQMTQSPSSMSASLGDRITITCQATQDIVKNLNWYQQKPGKPPSFLIYYAIELAEGVPSRFSGSGSGSDYSLTISNLESEDFADYYCLQFYEFPFTFGAGTKLELK
notes: as for B1
B9: SC16.20 (antibody, V domains shown)
VH: QVQLQQSGTELVRPGTSVRVSCKASGYAFGNHLIEWVKQRPGQGLEWIGVINPGTGGTHYNEKFKDKARLTADKSSNTAYMHLNSLTSDDSAVYFCARSPYDYHEGAMDYWGQGTSVTVSS
VL: B8 VL with I52T, S76R, Y86H
notes: as for B1
B10: SC16.15 (antibody, V domains shown)
VH: QVQLQQSGAELAKPGASVKMSCKASGYTFTRYWIHWIKQRPGQGLEWIGYINPTTVYTEFNQNFKDKATLTADKSSTTASMQLSSLTSEDSAVYYCARGGSNFFDYWGQGTTLTVSS
VL: DIQMTQSPASLAASVGETVAITCRASENIYYNLAWYQQKQGKSPQLLIYTANSLEDGVPSRFSGSGSGTQYSLKINSMQPEDSATYFCKQAYDVPPTFGGGTKLEIK
notes: as for B1
B11: SC16.19 (antibody, V domains shown)
VH: EVQLQQSGAELVRPGASVKLSCTASGFNIKDSLLHWVKQRPEKGLEWIGWIDPEDGETKYAPNFQDKATITTDSSSNTAYLQLISLTSVDTAIYYCAYGNYVRHFDYWGQGTTLTVSS
VL: DIQMTQSPSSLSASLGGKVTFTCKASQDIHKYVAWYQHKPGKGPRLLIHYTSTLQPGISSRFSGSGSGRDYSFSISNLEPEDIATYYCLQYNNLYTFGGGTKLEIK
notes: as for B1
B12: SC16.126 (antibody, V domains shown)
VH: QVQMKESGPGLVAPSQSLSITCTVSGSSLTNYGVHWVRQPPGKGLEWLGVIWAGGSTNYNSALMSRLSISKDNSKSQVFLKMNSLQTDDTAMYYCARDWEGWFAYWGQGTLVTVSA
VL: DIQMNQSPSSLSASLGDTITITCHASQNINVWLSWYQQKPGNIPKLLIYKASNLHTGVPSRFSGSGSGTGFTLTISSLQPEDIATYYCQQGQSYPFTFGSGTKLEIK
notes: as for B1
B13: SC16.149 (antibody, V domains shown)
VH: B12 VH with M4L, T23A, S27F, N31S, Y32F, N60Y, K71I
VL: B12 VL with N53H, F62L, K103T
notes: as for B1
B14: SC16.7 (antibody, V domains shown)
VH: EVQLQQSGPELVKPGASVKISCKASGYSFTGYKMHWVKQSHVKSLEWIGRINPYNGATSYNQNFKDKATLTVDKSSSTAYMDLHSLTSEDSAVYFCARGDYRYDWFAYWGQGTLVTVSA
VL: NIMMTQSPSSLAVSAGEKVTMSCKSSQSVLYSSNQKNYLAWYQQKPGQSPKLLIYWASTRESGVPDRFTGSGSGTDFTLTISTVQVEDLAVYYCHQYLSSWTFGGGTKLEIK
notes: as for B1
B15: SC16.148 (antibody, V domains shown)
VH: QIQLVQSGPELKKPGETVKISCKASGYTLTNYGMNWVKQAPGKGLKWMGWINTYTGEPTYADDFKGRFAFSLETSARIVYLQINNLKNEDTATYFCAKYEAHEGFVYWGQGTLVTVSA
VL: QIVLTQSPAIMSASPGEKVTMTCSASSSVSYMYWYQQKPGSSPRLLIYDTSNLASGVPVRFSGSGSGTSYSLTISRMEAEDTATYYCQEWSNNPLTFGDGTKLELK
notes: as for B1
B16: SC16.18 (antibody, V domains shown)
VH: EVKLEESGGGLVQPGESMKLSCAASGFTFSDAWMDWVRQSPEKGLEWVAEIRNKANNHATYYAESVKGKFTISRDDSKSRVYLQMNNLRAADTGIYYCTAYSNFAYWGQGTLVTVST
VL: DIQMTQTTSSLSASLGDRVTISCRASQNIINYLNWYQQKPDGTVKLLIYYTSRLHSGVPSRFSGSGSGTDYSLTISNLEPEDIATYYCQQYSERPYTFGGGTKLEIK
notes: as for B1
B17: SC16.41 (antibody, V domains shown)
VH: B16 VH with P14F, E16G, A63P, K69R, A91E, A100G, N103S, T117A
VL: B16 VL with N28D, I29V, G68R
notes: as for B1
B18: SC16.11 (antibody, V domains shown)
VH: QIQLVQSGPELKKPGETVKISCKASGYTFTDYSMHWVKQAPGKGLKWMGWINTETVEPTYADDFMGRFAFSLETSASTAFLQINNLENEDTATYFCARFGSYAMDYWGQGTSVTVSS
VL: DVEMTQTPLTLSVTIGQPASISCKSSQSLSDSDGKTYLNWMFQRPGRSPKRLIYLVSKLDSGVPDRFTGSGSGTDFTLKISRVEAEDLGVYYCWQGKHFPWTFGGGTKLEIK
notes: as for B1
B19: SC16.3 (antibody, V domains shown)
VH: QVTLKESGPGILQPSQTLSLTCSFSGFSLSTSGMGVGWIRQPSGKGLEWLAHIWWDDVKRYNPALKSRLTISKDTSSSQVFLKIASVDTADTATYYCARIADYGGDYYAMDYWGQGTSVTVSS
VL: QIVLTQSPAIMSVSLGERVTMTCTASSSVSSSYLHWYQQKPGSSPKLWIYSTSNLASGVPARFSGSGSGTSYFFTISSMEAEDAATYYCHQYHRSPFTFGAGTKLKIR
notes: as for B1
B20: SC16.10 (antibody, V domains shown)
VH: QVTLKESGPGILQSSQTLSLTCSFSGFSLSTSGMGVGWIRQPSGKGLEWLAHIWWDDVKRYNPVLKSRLTISKDTSSSQVFLKIASVDTADTATYYCARLVDDLYYFDYWGQGTTLTVSS
VL: B19 VL with V13A, A61T, F73S, F74L, A101S, K106E, R108K
notes: as for B1
B21: SC16.21 (antibody, V domains shown)
VH: QVQLQQSGPELVKPGASVKISCKASGYAFSSSWMNWVKQRPGKGLEWIGRIYPGDGDTNYNGKFKGKATLTADKSSSTAYMQLSSLTSEDSAVYFCAMGIYNYDGSRYYSMDYWGQGTSVTVSS
VL: DIVMTQSPSSLAMSVGQKVTMSCKSSQSLLNSSNQKNYLAWYQQEPGQSPKLLVSFASTRESGVPDRFTGSGSGTDFTLTISGVQAEDLAVYYCQQHYSIPLTFGAGTKLELK
notes: as for B1

For the assay, the target named is T1, human DLL3 (immobilized human DLL3 or …). Description: hybridoma screening on immobilized human DLL3 or on h293-hDLL3 cells.
Take B1: the binding result is recorded as “binds”.

Regarding B2, the binding result is on record as “binds”.

As for B3, the binding result is “binds”.

Consider B4, for which the binding result is on record as “binds”.

On to B5, for which the binding result was “binds”.

Turning to B6, the binding result is on record as “binds”.

As for B7, the binding result is “binds”.

B8: the binding result is “binds”.

For B9, the binding result is “binds”.

As for B10, the binding result was “binds”.

As for B11, the binding result is on record as “binds”.

Regarding B12, the binding result is recorded as “binds”.

For the molecule B13, the binding result is “binds”.

In the case of B14, the binding result is reported as “binds”.

In the case of B15, the binding result is reported as “binds”.

With B16, the binding result is “binds”.

In the case of B17, the binding result is “binds”.

As to B18, the binding result was “binds”.

As to B19, the binding result was “binds”.

For B20, the binding result is “binds”.

In the case of B21, the binding result was “binds”.
